Laboratory results from paper PMC10398351, “Structural and molecular insight into antibody recognition of dynamic neoepitopes in membrane tethered MUC1 of pancreatic cancer cells and secreted exosomes” (RSC Chemical Biology, 2023).

Experiments:
[1] = molecular target: MUC1 TRD-Tn (3); assay: SPR; Biacore 2000; MUC1 TRD models 2-4 immobilised on a CM5 chip by maleimide coupling through a C-terminal cysteine; SN-131 Fab injected; bivalent binding model
[2] = molecular target: MUC1-ST (4); assay: as above

Kd [1]: 3.78 nM
Kd [2]: 1.58 nM
B1: SN-131 Fab (Fab, V domains shown)
VH: QVQLQQSGAELARPGASVKLSCKASGYTFTNYGLSWVKQRTGQGLEWIGENHPGSGIIYHNEKFRGKATLTADKSSSTAYVQLSSLTSEDSAVYFCARSSGTRGFAYWGQGTLVTVSA
VL: DVLMTQTPLSLPVSLGDQASISCRSSQSIVHSNGNTYLEWYLQKPGQSPKLLIYKVSNRFSGVPDRFSGSGSGTDFTLKISRVEAEDLGVYYCFQGSHGPWTFGGGTKLEIK
